# Measured values from patent publication US20200057047.
# Tested on: HA-tagged AhR
# Myc-tagged PKCθ, sequence (Q04759 whole entry): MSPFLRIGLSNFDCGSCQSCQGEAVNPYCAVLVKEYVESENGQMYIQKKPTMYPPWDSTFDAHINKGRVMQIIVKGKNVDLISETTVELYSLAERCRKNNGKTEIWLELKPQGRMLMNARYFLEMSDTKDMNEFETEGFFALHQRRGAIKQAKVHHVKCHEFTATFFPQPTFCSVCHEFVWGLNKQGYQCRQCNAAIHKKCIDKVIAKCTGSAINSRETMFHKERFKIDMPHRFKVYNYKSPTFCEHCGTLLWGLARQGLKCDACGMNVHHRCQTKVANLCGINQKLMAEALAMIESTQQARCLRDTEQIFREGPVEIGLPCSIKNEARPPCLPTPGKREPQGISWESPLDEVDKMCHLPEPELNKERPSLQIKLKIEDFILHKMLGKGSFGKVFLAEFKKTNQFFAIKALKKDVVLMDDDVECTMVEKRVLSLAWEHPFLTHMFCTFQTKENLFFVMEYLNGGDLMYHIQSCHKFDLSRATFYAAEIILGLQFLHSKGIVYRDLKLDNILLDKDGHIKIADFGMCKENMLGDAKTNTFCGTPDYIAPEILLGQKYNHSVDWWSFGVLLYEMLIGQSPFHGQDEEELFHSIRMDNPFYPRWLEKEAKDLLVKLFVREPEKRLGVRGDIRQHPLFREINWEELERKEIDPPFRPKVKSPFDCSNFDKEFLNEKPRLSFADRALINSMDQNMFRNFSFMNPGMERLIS
row,Substance,in vitro kinase assay: AhR Ser-36 phosphorylation
1,Myc-tagged PKCθ,purified PKCθ indeed phosphorylated AhR at Ser-36
2,Myc-tagged PKCθ kinase-dead (K409W) mutant,purified kinase-dead (K409W) mutant of PKCθ did not
